First the molecules themselves.
B1: [Aib8,Glu23,Val25,Glu34,Lys35,Val36,Lys37]-GLP-1-(7-37)-peptidyl-Glu-Val-Leu amide (peptide)
peptide: H[Aib]EGTFTSDVSSYLEGEAVKEFIAWLVEKVKEVL-NH2
modifications: N-terminus assumed
SMILES: CC[C@H](C)[C@H](NC(=O)[C@H](Cc1ccccc1)NC(=O)[C@H](CCC(=O)O)NC(=O)[C@H](CCCCN)NC(=O)[C@@H](NC(=O)[C@H](C)NC(=O)[C@H](CCC(=O)O)NC(=O)CNC(=O)[C@H](CCC(=O)O)NC(=O)[C@H](CC(C)C)NC(=O)[C@H](Cc1ccc(O)cc1)NC(=O)[C@H](CO)NC(=O)[C@H](CO)NC(=O)[C@@H](NC(=O)[C@H](CC(=O)O)NC(=O)[C@H](CO)NC(=O)[C@@H](NC(=O)[C@H](Cc1ccccc1)NC(=O)[C@@H](NC(=O)CNC(=O)[C@H](CCC(=O)O)NC(=O)C(C)(C)NC(=O)[C@@H](N)Cc1c[nH]cn1)[C@@H](C)O)[C@@H](C)O)C(C)C)C(C)C)C(=O)N[C@@H](C)C(=O)N[C@@H](Cc1c[nH]c2ccccc12)C(=O)N[C@@H](CC(C)C)C(=O)N[C@H](C(=O)N[C@@H](CCC(=O)O)C(=O)N[C@@H](CCCCN)C(=O)N[C@H](C(=O)N[C@@H](CCCCN)C(=O)N[C@@H](CCC(=O)O)C(=O)N[C@H](C(=O)N[C@@H](CC(C)C)C(N)=O)C(C)C)C(C)C)C(C)C
B2: [Aib8,Glu23,Val25,Glu34,Lys35,Val36,Lys37]-GLP-1-(7-37)-peptidyl-Glu-Leu-Leu amide (peptide)
peptide: H[Aib]EGTFTSDVSSYLEGEAVKEFIAWLVEKVKELL-NH2
modifications: N-terminus assumed
SMILES: CC[C@H](C)[C@H](NC(=O)[C@H](Cc1ccccc1)NC(=O)[C@H](CCC(=O)O)NC(=O)[C@H](CCCCN)NC(=O)[C@@H](NC(=O)[C@H](C)NC(=O)[C@H](CCC(=O)O)NC(=O)CNC(=O)[C@H](CCC(=O)O)NC(=O)[C@H](CC(C)C)NC(=O)[C@H](Cc1ccc(O)cc1)NC(=O)[C@H](CO)NC(=O)[C@H](CO)NC(=O)[C@@H](NC(=O)[C@H](CC(=O)O)NC(=O)[C@H](CO)NC(=O)[C@@H](NC(=O)[C@H](Cc1ccccc1)NC(=O)[C@@H](NC(=O)CNC(=O)[C@H](CCC(=O)O)NC(=O)C(C)(C)NC(=O)[C@@H](N)Cc1c[nH]cn1)[C@@H](C)O)[C@@H](C)O)C(C)C)C(C)C)C(=O)N[C@@H](C)C(=O)N[C@@H](Cc1c[nH]c2ccccc12)C(=O)N[C@@H](CC(C)C)C(=O)N[C@H](C(=O)N[C@@H](CCC(=O)O)C(=O)N[C@@H](CCCCN)C(=O)N[C@H](C(=O)N[C@@H](CCCCN)C(=O)N[C@@H](CCC(=O)O)C(=O)N[C@@H](CC(C)C)C(=O)N[C@@H](CC(C)C)C(N)=O)C(C)C)C(C)C
B3: [Aib8,Glu23,Val25,Glu34,Lys35,Val36,Lys37]-GLP-1-(7-37)-peptidyl-Glu-Phe-Phe amide (peptide)
peptide: H[Aib]EGTFTSDVSSYLEGEAVKEFIAWLVEKVKEFF-NH2
modifications: N-terminus assumed
SMILES: CC[C@H](C)[C@H](NC(=O)[C@H](Cc1ccccc1)NC(=O)[C@H](CCC(=O)O)NC(=O)[C@H](CCCCN)NC(=O)[C@@H](NC(=O)[C@H](C)NC(=O)[C@H](CCC(=O)O)NC(=O)CNC(=O)[C@H](CCC(=O)O)NC(=O)[C@H](CC(C)C)NC(=O)[C@H](Cc1ccc(O)cc1)NC(=O)[C@H](CO)NC(=O)[C@H](CO)NC(=O)[C@@H](NC(=O)[C@H](CC(=O)O)NC(=O)[C@H](CO)NC(=O)[C@@H](NC(=O)[C@H](Cc1ccccc1)NC(=O)[C@@H](NC(=O)CNC(=O)[C@H](CCC(=O)O)NC(=O)C(C)(C)NC(=O)[C@@H](N)Cc1c[nH]cn1)[C@@H](C)O)[C@@H](C)O)C(C)C)C(C)C)C(=O)N[C@@H](C)C(=O)N[C@@H](Cc1c[nH]c2ccccc12)C(=O)N[C@@H](CC(C)C)C(=O)N[C@H](C(=O)N[C@@H](CCC(=O)O)C(=O)N[C@@H](CCCCN)C(=O)N[C@H](C(=O)N[C@@H](CCCCN)C(=O)N[C@@H](CCC(=O)O)C(=O)N[C@@H](Cc1ccccc1)C(=O)N[C@@H](Cc1ccccc1)C(N)=O)C(C)C)C(C)C

Experimental findings from patent publication US20150344540A1, “NOVEL GLP-1 RECEPTOR AGONISTS WITH CHOLESTEROL EFFLUX ACTIVITY” (NOVO NORDISK A/S, priority 2012, published 2015) are described below.

Where no end group is shown, it is not given here. [ ]: non-standard residue; d: D form. Aib = CC(C)(N)C(=O)O

This assay concerns the target human GLP-1 receptor (human, UniProt P43220). Briefly: cell-based or functional assay.
Take B1: the “CRE luciferase EC50, 0% HSA” value was found to be 0.198 nM and the “CRE luciferase EC50, 1% HSA” value is 0.065 nM.

For the molecule B2, the “CRE luciferase EC50, 0% HSA” value was 0.489 nM and the “CRE luciferase EC50, 1% HSA” value is 0.303 nM.

Consider B3, for which the “CRE luciferase EC50, 0% HSA” value was found to be 0.525 nM and the “CRE luciferase EC50, 1% HSA” value was found to be 0.372 nM.

As for HAEGTFTSDVSSYLEGQAAKEFIAWLVEKVKEF-NH2 [[Glu34,Lys35,Val36,Lys37]-GLP-1-(7-37)-peptidyl-Glu-Phe amide], the “CRE luciferase EC50, 0% HSA” value is 0.016 nM and the “CRE luciferase EC50, 1% HSA” value was determined as 0.005 nM.
